# Laboratory results published in paper PMC9352680, “A comprehensive thermodynamic model for RNA binding by the Saccharomyces cerevisiae Pumilio protein PUF4”.
# Substitutions are numbered along the chain they refer to. Names may count otherwise.
# T1: PUF4 RNA-binding domain (Saccharomyces cerevisiae, UniProt P25339 537-888)
# T1 sequence: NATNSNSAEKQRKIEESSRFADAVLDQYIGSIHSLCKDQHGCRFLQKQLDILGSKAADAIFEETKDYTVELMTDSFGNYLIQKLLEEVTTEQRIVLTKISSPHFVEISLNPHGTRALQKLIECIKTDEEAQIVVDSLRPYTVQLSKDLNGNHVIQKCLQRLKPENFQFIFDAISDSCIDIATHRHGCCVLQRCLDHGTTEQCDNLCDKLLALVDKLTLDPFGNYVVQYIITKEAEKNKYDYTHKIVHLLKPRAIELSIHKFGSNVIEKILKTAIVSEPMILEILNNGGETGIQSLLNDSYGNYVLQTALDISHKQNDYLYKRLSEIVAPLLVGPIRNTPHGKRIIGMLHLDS
# B1: Ie_S2_P3E.2_K3.1_C3.2_[+-2CC]_H3.1_A3.1_F3.1_T3.2 (ssRNA)
# RNA: UUUGAUUAAUAUGAUAUCGUUCUUUCUCCCUUGUAUAUAUAUUCUUUCUCGAUAUCAUAUUAAUCUUU
# B2: Ie_S2_P3E.2_K3.1_C3.2_H3.1_[+1TC]_A3.1_F3.1_T3.2 (ssRNA)
# RNA: B1 RNA with C29U, C30U, U32C
# B3: Ie_S2_P3E.2_K3.1_C3.2_[+-1CC]_H3.1_A3.1_F3.1_T3.2 (ssRNA)
# RNA: B1 RNA with C29U, U31C
# B4: Ie_S2_P3E.2_K3.1_C3.2_H3.1_[+1TT]_A3.1_F3.1_T3.2 (ssRNA)
# RNA: B1 RNA with C29U, C30U
# B5: Ie_S2_P3E.2_K3.1_C3.2_[+-2TCTCT]_H3.1_A3.1_F3.1_T3.2 (ssRNA)
# RNA: UUUGAUUAAUAUGAUAUCGUUCUUUCUCUCUCUUUGUAUAUAUAUUCUUUCUCGAUAUCAUAUUAAUCUUU
# B6: Ie_S2_P3E.2_K3.1_C3.2_[+-1TCTCT]_H3.1_A3.1_F3.1_T3.2 (ssRNA)
# RNA: B5 RNA with C30U, U31C, C32U, U33C
# B7: Ie_S2_P3E.2_K3.1_C3.2_[+-2CCCTT]_H3.1_A3.1_F3.1_T3.2 (ssRNA)
# RNA: B5 RNA with U29C, U31C, C32U
# B8: Ie_S2_P3E.2_K3.1_C3.2_H3.1_[+1CCTCT]_A3.1_F3.1_T3.2 (ssRNA)
# RNA: B5 RNA with C30U, U31C, U34C
# B9: Ie_S2_P3E.2_K3.1_C3.2_[+-2CCTCT]_H3.1_A3.1_F3.1_T3.2 (ssRNA)
# RNA: B5 RNA with U29C
# B10: Ie_S2_P3E.2_K3.1_C3.2_[+-1CCCTT]_H3.1_A3.1_F3.1_T3.2 (ssRNA)
# RNA: B5 RNA with U31C
# B11: Ie_S2_P3E.2_K3.1_C3.2_[+-1CCTCT]_H3.1_A3.1_F3.1_T3.2 (ssRNA)
# RNA: B5 RNA with U31C, C32U, U33C
# B12: Ie_S2_P3E.2_K3.1_C3.2_[+-1TTCCT]_H3.1_A3.1_F3.1_T3.2 (ssRNA)
# RNA: B5 RNA with C30U, U33C
# B13: Ie_S2_P3E.2_K3.1_C3.2_H3.1_[+1TCTCT]_A3.1_F3.1_T3.2 (ssRNA)
# RNA: B5 RNA with C30U, U34C
# B14: Ia_S2_P3E.1_K3.1_C3.1_H3.1_[G2C]_A3.1_F3.1_T3.1 (ssRNA)
# RNA: UUUGAUUAAUAUGAUAUCGUUCUUUCUUCUAUAUAUUCUUUCUCGAUAUCAUAUUAAUCUUU
# B15: Ic_S2_P3E.1_K3.1_C3.1_H3.1_A3.1_[T5A]_F3.1_[T7C]_T3.1 (ssRNA)
# RNA: B14 RNA with C29G, U32A, U34C
# B16: Ib_S2_P3E.1_K3.1_C3.1_H3.1_A3.1_[A6G]_F3.1_[T7C]_T3.1 (ssRNA)
# RNA: B14 RNA with C29G, A33G, U34C
# B17: Ib_S2_P3E.1_K3.1_C3.1_H3.1_A3.1_[T5C]_F3.1_[T7A]_T3.1 (ssRNA)
# RNA: B14 RNA with C29G, U32C, U34A
# B18: Ib_S2_P3E.1_K3.1_C3.1_H3.1_A3.1_[T5C]_F3.1_[T7C]_T3.1 (ssRNA)
# RNA: B14 RNA with C29G, U32C, U34C
# B19: Ie_S2_P3E.2_K3.1_C3.2_[+-2CCC]_H3.1_A3.1_F3.1_T3.2 (ssRNA)
# RNA: UUUGAUUAAUAUGAUAUCGUUCUUUCUCCCCUUGUAUAUAUAUUCUUUCUCGAUAUCAUAUUAAUCUUU
# B20: Ie_S2_P3E.2_K3.1_C3.2_[+-1CCC]_H3.1_A3.1_F3.1_T3.2 (ssRNA)
# RNA: B19 RNA with C29U, U32C
# B21: Ie_S2_P3E.2_K3.1_C3.2_H3.1_[+1TCT]_A3.1_F3.1_T3.2 (ssRNA)
# RNA: B19 RNA with C29U, C30U, C31U, U32C
# B22: Ie_S2_P3E.2_K3.1_C3.2_[+-2TCC]_H3.1_A3.1_F3.1_T3.2 (ssRNA)
# RNA: B19 RNA with C29U
# B23: Ie_S2_P3E.2_K3.1_C3.2_H3.1_[+1TTC]_A3.1_F3.1_T3.2 (ssRNA)
# RNA: B19 RNA with C29U, C30U, C31U, U33C
# B24: Ie_S2_P3E.2_K3.1_C3.2_H3.1_[+1TCC]_A3.1_F3.1_T3.2 (ssRNA)
# RNA: B19 RNA with C29U, C30U, C31U, U32C, U33C
# B25: Ie_S2_P3E.2_K3.1_C3.2_[+-2CTC]_H3.1_A3.1_F3.1_T3.2 (ssRNA)
# RNA: B19 RNA with C30U
# B26: Ie_S2_P3E.2_K3.1_C3.2_[+-2TCT]_H3.1_A3.1_F3.1_T3.2 (ssRNA)
# RNA: B19 RNA with C29U, C31U
# B27: Ie_S2_P3E.2_K3.1_C3.2_H3.1_[+1CCC]_A3.1_F3.1_T3.2 (ssRNA)
# RNA: B19 RNA with C29U, C30U, U32C, U33C
# B28: Ie_S2_P3E.2_K3.1_C3.2_H3.1_[+1CCT]_A3.1_F3.1_T3.2 (ssRNA)
# RNA: B19 RNA with C29U, C30U, U32C
# B29: Ie_S2_P3E.2_K3.1_C3.2_H3.1_[+1TTT]_A3.1_F3.1_T3.2 (ssRNA)
# RNA: B19 RNA with C29U, C30U, C31U
# B30: Ie_S2_P3E.2_K3.1_C3.2_[+-2CCT]_H3.1_A3.1_F3.1_T3.2 (ssRNA)
# RNA: B19 RNA with C31U
# B31: Ie_S2_P3E.2_K3.1_C3.2_H3.1_[+1CTT]_A3.1_F3.1_T3.2 (ssRNA)
# RNA: B19 RNA with C29U, C30U
# B32: Ie_S2_P3E.2_K3.1_C3.2_[+-2CTCT]_H3.1_A3.1_F3.1_T3.2 (ssRNA)
# RNA: UUUGAUUAAUAUGAUAUCGUUCUUUCUCCUCUUUGUAUAUAUAUUCUUUCUCGAUAUCAUAUUAAUCUUU
# B33: Ie_S2_P3E.2_K3.1_C3.2_[+-2TTCC]_H3.1_A3.1_F3.1_T3.2 (ssRNA)
# RNA: B32 RNA with C29U, U32C
# B34: Ie_S2_P3E.2_K3.1_C3.2_[+-1CCTC]_H3.1_A3.1_F3.1_T3.2 (ssRNA)
# RNA: B32 RNA with C29U, U30C, U33C
# B35: Ie_S2_P3E.2_K3.1_C3.2_H3.1_[+1CCTC]_A3.1_F3.1_T3.2 (ssRNA)
# RNA: B32 RNA with C29U, U32C, U34C
# B36: Ie_S2_P3E.2_K3.1_C3.2_[+-1TTCC]_H3.1_A3.1_F3.1_T3.2 (ssRNA)
# RNA: B32 RNA with C29U, C31U, U32C, U33C
# B37: Ie_S2_P3E.2_K3.1_C3.2_H3.1_[+1CTCT]_A3.1_F3.1_T3.2 (ssRNA)
# RNA: B32 RNA with C29U, U33C
# B38: Ie_S2_P3E.2_K3.1_C3.2_H3.1_[+1CCCT]_A3.1_F3.1_T3.2 (ssRNA)
# RNA: B32 RNA with C29U, U32C, U33C
# B39: Ie_S2_P3E.2_K3.1_C3.2_[+-2CCTC]_H3.1_A3.1_F3.1_T3.2 (ssRNA)
# RNA: B32 RNA with U30C, C31U, U32C
# B40: Ie_S2_P3E.2_K3.1_C3.2_[+-2CCCT]_H3.1_A3.1_F3.1_T3.2 (ssRNA)
# RNA: B32 RNA with U30C
# B41: Ie_S2_P3E.2_K3.1_C3.2_[+-1CTCT]_H3.1_A3.1_F3.1_T3.2 (ssRNA)
# RNA: B32 RNA with C29U, U30C, C31U, U32C
# B42: Ie_S2_P3E.2_K3.1_C3.2_H3.1_[+1T]_A3.1_F3.1_T3.2 (ssRNA)
# RNA: UUUGAUUAAUAUGAUAUCGUUCUUUCUCUUUGUAUAUAUAUUCUUUCUCGAUAUCAUAUUAAUCUUU
# B43: Ie_S2_P3E.2_K3.1_C3.2_H3.1_[+1C]_A3.1_F3.1_T3.2 (ssRNA)
# RNA: B42 RNA with U31C
# Target: T1, PUF4 RNA-binding domain
# Test: Mg; RNA-MaP; 20 mM Na-HEPES pH 7.4, 30 mM KOAc, 0.75 mM MgCl2, 0.1% Tween-20, 5% glycerol, 0.1 mg/mL BSA, 2 mM DTT; 25 C; 0.0125-409.6 nM protein
# Conditions: tags: N-His6-TEV cleaved; C-SNAP kept, Cy3B-labelled; label: tethered on chip by stalled RNA polymerase
row,Binder,Kd [nM]
1,B1,1.07
2,B2,39
3,B3,0.923
4,B4,1.22
5,UCUCUUUGUAUUAUUAUCUCUUCUCUU (ssRNA) [Ie_S1_P5E.1_K5.1_C5.1_H5.1_A5.1_F5.1_[+10TCTCT]_T5.1],8.17
6,UCUCUUUGUAUUAUUAUUCCUCUCUU (ssRNA) [Ie_S1_P5E.1_K5.1_C5.1_H5.1_A5.1_F5.1_[+10TTCC]_T5.1],4.65
7,B5,1.24
8,B6,1.04
9,B7,0.802
10,B8,1.11
11,B9,1.06
12,B10,0.572
13,B11,0.967
14,B12,0.987
15,B13,1.44
16,UCUCUUUGUAUUAUUCCUCUAUCUCUU (ssRNA) [Ie_S1_P5E.1_K5.1_C5.1_H5.1_A5.1_F5.1_[+9CCTCT]_T5.1],14.3
17,UCUCUUUGUAUUAUUAUCCUCUCUU (ssRNA) [Ie_S1_P5E.1_K5.1_C5.1_H5.1_A5.1_F5.1_[+10TCC]_T5.1],6.07
18,B14,473
19,B15,327
20,B16,198
21,B17,58.4
22,B18,22.4
23,UCUCUUUGUAUUAUUUCUCUAUCUCUU (ssRNA) [Ie_S1_P5E.1_K5.1_C5.1_H5.1_A5.1_F5.1_[+9TCTCT]_T5.1],14
24,UCUCUUUGUAUUAUUUUCCUAUCUCUU (ssRNA) [Ie_S1_P5E.1_K5.1_C5.1_H5.1_A5.1_F5.1_[+9TTCCT]_T5.1],22.3
25,UCUCUUUGUAUUAUUAUCUCUCUU (ssRNA) [Ie_S1_P5E.1_K5.1_C5.1_H5.1_A5.1_F5.1_[+10TC]_T5.1],4.34
26,B19,0.969
27,B20,0.662

row,Binder,Kd [nM]
1,B21,1.12
2,B22,0.933
3,B23,36.5
4,B24,44.3
5,B25,0.846
6,B26,1.02
7,B27,31.2
8,B28,1.05
9,B29,1.33
10,B30,1.07
11,B31,1.32
12,B32,1.08
13,B33,0.819
14,B34,0.786
15,B35,52.3
16,B36,1.28
17,B37,0.882
18,B38,0.515
19,B39,0.683
20,B40,0.468
21,B41,0.703
22,UCUCUUUGUAUUAUUAUUCUCUCUU (ssRNA) [Ie_S1_P5E.1_K5.1_C5.1_H5.1_A5.1_F5.1_[+10TTC]_T5.1],5.81
23,UCUCUUUGUAUUAUUAUUUCUCUU (ssRNA) [Ie_S1_P5E.1_K5.1_C5.1_H5.1_A5.1_F5.1_[+10TT]_T5.1],6.42
24,UCUCUUUGUAUUAUUCCCUUAUCUCUU (ssRNA) [Ie_S1_P5E.1_K5.1_C5.1_H5.1_A5.1_F5.1_[+9CCCTT]_T5.1],17.6
25,B42,1.11
26,B43,34.5
